Results: IntAct's records for PubMed 19909339

B1: Olfactory receptor 2AG1 (Homo sapiens), Q9H205 (parent)
chain: MELWNFTLGSGFILVGILNDSGSPELLCATITILYLLALISNGLLLLAITMEARLHMPMYLLLGQLSLMDLLFTSVVTPKALADFLRRENTISFGGCALQMFLALTMGGAEDLLLAFMAYDRYVAICHPLTYMTLMSSRACWLMVATSWILASLSALIYTVYTMHYPFCRAQEIRHLLCEIPHLLKVACADTSRYELMVYVMGVTFLIPSLAAILASYTQILLTVLHMPSNEGRKKALVTCSSHLTVVGMFYGAATFMYVLPSSFHSTRQDNIISVFYTIVTPALNPLIYSLRNKEVMRALRRVLGKYMLPAHSTL

Variants of: B1
Conditions: with mpdz_human MPDZ

Row | effect of a mutation on the interaction | Variant
1 | disrupting interaction | L316W
2 | disrupting interaction | S314W
